US20240190989A1 (BEIGENE SWITZERLAND, published 2024)
Numbering of substitutions follows the chain as printed. Names and notes keep the numbering of the source.

B1: BE-562 (E-muFc-BGA-5623) (bispecific antibody)
heavy: EVQLLESGGGLVQPGGSLRLSCAASGFTVSAEDVGWVRQAPGKGLEWVSAILDKGGSTYYAESVKGRFTISRDNAKNTLYLQMSSLRAEDTAVYYCARIVYHAGGGVTFDTRGQGTQVTVSSEPKSSDKTHTCPPCPAPPAAGPSVFLFPPKPKDTLMISRTPEVTCVVVDVSHEDPEVKFNWYVDGVEVHNAKTKPREEQYNSTYRVVSVLTVLHQDWLNGKEYKCKVSNKALAAPIEKTISKAKGQPREPQVYTLPPSREEMTKNQVSLTCLVKGFYPSDIAVEWESNGQPENNYKTTPPVLDSDGSFFLYSKLTVDKSRWQQGNVFSCSVMHEALHNHYTQKSLSLSPGKGGGGSQVQLVQSGAEVKKPGASVKVSCKASGYIFTSYYLHWVRQAPGQGLEWIGYINPQTGKTSYAQKFQGRVTMTRDTSTSTVYMELSSLRSEDTAVYYCAREYGNYNYPLDYWGQGTLVTVSSASTKGPSVFPLAPSSKSTSGGTAALGCLVKDYFPEPVTVSWNSGALTSGVHTFPAVLQSSGLYSLSSVVTVPSSSLGTQTYICNVNHKPSNTKVDKKVEPKSCD
light: DIQMTQSPSSLSASVGDRVTITCRASENQYGYLAWYQQKPGKVPKLLIYNYKNLVEGVPSRFSGSGSGTDFTLTISSLQPEDVATYYCQHHLGTPYTFGQGTKVEIKRTVAAPSVFIFPPSDEQLKSGTASVVCLLNNFYPREAKVQWKVDNALQSGNSQESVTEQDSKDSTYSLSSTLTLSKADYEKHKVYACEVTHQGLSSPVTKSFNRGEC
B2: BE-942 (ZW 1+1) (bispecific antibody, human IgG1, L234A L235A)
heavy: QVQLVQSGAEVKKPGASVKVSCKASGYIFTSYYLHWVRQAPGQGLEWIGYINPQTGKTSYAQKFQGRVTMTRDTSTSTVYMELSSLRSEDTAVYYCAREYGNYNYPLDYWGQGTLVTVSSASTKGPSVFPLAPSSKSTSGGTAWLGCEVTDYFPEPVTVSWNSGALTSGVHTFPAVLESSGLYSLSSVVTVPSSSLGTQTYICNVNHKPSNTKVDKKVEPKSCDKTHTCPPCPAPEAAGGPSVFLFPPKPKDTLMISRTPEVTCVVVSVSHEDPEVKFNWYVDGVEVHNAKTKPREEQYNSTYRVVSVLTVLHQDWLNGKEYKCKVSNKALPAPIEKTISKAKGQPREPQVYVLPPSRDELTKNQVSLLCLVKGFYPSDIAVEWESNGQPENNYLTWPPVLDSDGSFFLYSKLTVDKSRWQQGNVFSCSVMHEALHNHYTQKSLSLSPGK
light: B1 light with F116A, Q124R, L135V, T178R
chain: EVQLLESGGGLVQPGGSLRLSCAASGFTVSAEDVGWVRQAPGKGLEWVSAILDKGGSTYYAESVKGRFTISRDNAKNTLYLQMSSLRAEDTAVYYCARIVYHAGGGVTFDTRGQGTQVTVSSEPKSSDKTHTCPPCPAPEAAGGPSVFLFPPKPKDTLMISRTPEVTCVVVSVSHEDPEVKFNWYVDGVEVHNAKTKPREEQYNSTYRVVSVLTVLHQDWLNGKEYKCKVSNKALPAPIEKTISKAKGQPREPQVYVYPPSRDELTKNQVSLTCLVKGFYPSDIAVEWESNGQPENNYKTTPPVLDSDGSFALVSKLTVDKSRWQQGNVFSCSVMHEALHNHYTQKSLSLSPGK
B3: BE-718 (A-BGA-5623-BGA-5623) (bispecific antibody, human IgG1, kappa)
heavy: QVQLVQSGAEVKKPGASVKVSCKASGYIFTSYYLHWVRQAPGQGLEWIGYINPQTGKTSYAQKFQGRVTMTRDTSTSTVYMELSSLRSEDTAVYYCAREYGNYNYPLDYWGQGTLVTVSSASTKGPSVFPLAPSSKSTSGGTAALGCLVKDYFPEPVTVSWNSGALTSGVHTFPAVLQSSGLYSLSSVVTVPSSSLGTQTYICNVNHKPSNTKVDKKVEPKSCDKTHTCPPCPAPPAAGPSVFLFPPKPKDTLMISRTPEVTCVVVDVSHEDPEVKFNWYVDGVEVHNAKTKPREEQYNSTYRVVSVLTVLHQDWLNGKEYKCKVSNKALAAPIEKTISKAKGQPREPQVYTLPPSREEMTKNQVSLTCLVKGFYPSDIAVEWESNGQPENNYKTTPPVLDSDGSFFLYSKLTVDKSRWQQGNVFSCSVMHEALHNHYTQKSLSLSPGKGGGGSEVQLLESGGGLVQPGGSLRLSCAASGFTVSAEDVGWVRQAPGKGLEWVSAILDKGGSTYYAESVKGRFTISRDNAKNTLYLQMSSLRAEDTAVYYCARIVYHAGGGVTFDTRGQGTQVTVSSGGGGSEVQLLESGGGLVQPGGSLRLSCAASGFTVSAEDVGWVRQAPGKGLEWVSAILDKGGSTYYAESVKGRFTISRDNAKNTLYLQMSSLRAEDTAVYYCARIVYHAGGGVTFDTRGQGTQVTVSS
light: B1 light
B4: BE-375 (E-IgG1-BGA-5623) (bispecific antibody)
heavy: not shown
light: B1 light
B5: BE-755 (ZW1+2) (bispecific antibody, human IgG1, L234A L235A)
heavy: B2 heavy
light: B1 light with F116A, Q124R, L135V, T178R
chain: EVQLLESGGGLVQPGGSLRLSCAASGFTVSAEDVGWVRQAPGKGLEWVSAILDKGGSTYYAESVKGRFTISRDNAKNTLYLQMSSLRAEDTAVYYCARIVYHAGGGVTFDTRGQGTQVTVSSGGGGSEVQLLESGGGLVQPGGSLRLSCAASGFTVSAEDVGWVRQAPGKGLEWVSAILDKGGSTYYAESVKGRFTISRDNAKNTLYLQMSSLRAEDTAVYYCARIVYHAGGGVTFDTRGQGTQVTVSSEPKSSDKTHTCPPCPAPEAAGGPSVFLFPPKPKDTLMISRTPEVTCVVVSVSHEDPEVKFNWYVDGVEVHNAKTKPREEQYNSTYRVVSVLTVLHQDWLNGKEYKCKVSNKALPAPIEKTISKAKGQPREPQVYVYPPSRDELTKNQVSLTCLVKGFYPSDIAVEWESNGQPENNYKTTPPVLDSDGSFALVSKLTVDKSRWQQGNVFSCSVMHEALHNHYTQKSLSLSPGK
B6: BE-740 (A-IgG1-BGA-5623) (bispecific antibody)
heavy: not shown
light: B1 light
B7: BE-244 (A-(G4S)3-BGA-5623) (bispecific antibody, human IgG1, kappa)
heavy: QVQLVQSGAEVKKPGASVKVSCKASGYIFTSYYLHWVRQAPGQGLEWIGYINPQTGKTSYAQKFQGRVTMTRDTSTSTVYMELSSLRSEDTAVYYCAREYGNYNYPLDYWGQGTLVTVSSASTKGPSVFPLAPSSKSTSGGTAALGCLVKDYFPEPVTVSWNSGALTSGVHTFPAVLQSSGLYSLSSVVTVPSSSLGTQTYICNVNHKPSNTKVDKKVEPKSCDKTHTCPPCPAPPAAGPSVFLFPPKPKDTLMISRTPEVTCVVVDVSHEDPEVKFNWYVDGVEVHNAKTKPREEQYNSTYRVVSVLTVLHQDWLNGKEYKCKVSNKALAAPIEKTISKAKGQPREPQVYTLPPSREEMTKNQVSLTCLVKGFYPSDIAVEWESNGQPENNYKTTPPVLDSDGSFFLYSKLTVDKSRWQQGNVFSCSVMHEALHNHYTQKSLSLSPGKGGGGSGGGGSGGGGSEVQLLESGGGLVQPGGSLRLSCAASGFTVSAEDVGWVRQAPGKGLEWVSAILDKGGSTYYAESVKGRFTISRDNAKNTLYLQMSSLRAEDTAVYYCARIVYHAGGGVTFDTRGQGTQVTVSS
light: B1 light
B8: Format A BGA-3953 (bispecific antibody, human IgG1, kappa)
heavy: QVQLVQSGAEVKKPGASVKVSCKASGYIFTSYYLHWVRQAPGQGLEWIGYINPQTGKTSYAQKFQGRVTMTRDTSTSTVYMELSSLRSEDTAVYYCAREYGNYNYPLDYWGQGTLVTVSSASTKGPSVFPLAPSSKSTSGGTAALGCLVKDYFPEPVTVSWNSGALTSGVHTFPAVLQSSGLYSLSSVVTVPSSSLGTQTYICNVNHKPSNTKVDKKVEPKSCDKTHTCPPCPAPPAAGPSVFLFPPKPKDTLMISRTPEVTCVVVDVSHEDPEVKFNWYVDGVEVHNAKTKPREEQYNSTYRVVSVLTVLHQDWLNGKEYKCKVSNKALAAPIEKTISKAKGQPREPQVYTLPPSREEMTKNQVSLTCLVKGFYPSDIAVEWESNGQPENNYKTTPPVLDSDGSFFLYSKLTVDKSRWQQGNVFSCSVMHEALHNHYTQKSLSLSPGKGGGGSEVQLLESGGGLVQPGGSLRLSCAASGFTVSAEDVGWVRQAPGKGLEWVSAILDSGGSTYYAESVKGRFTISRDNAKNTLYLQMSSLRAEDTAVYYCARIVYHAGGGVTFDTRGQGTQVTVSS
light: B1 light
B9: Format A BGA-9468 (bispecific antibody, human IgG1, kappa)
heavy: B8 heavy with I553V, A557S, T565L
light: B1 light
B10: Format A BGA-7746 (bispecific antibody, human IgG1, kappa)
heavy: B8 heavy with S508F, I553V
light: B1 light
B11: Format A BGA-3285 (bispecific antibody, human IgG1, kappa)
heavy: B8 heavy with V483I, S508F, I553V
light: B1 light
B12: Format A BGA-5385 (bispecific antibody, human IgG1, kappa)
heavy: B8 heavy with V483L, S508H, I553V, V554I
light: B1 light
B13: Format A BGA-9442 (bispecific antibody, human IgG1, kappa)
heavy: B8 heavy with V483I, I553Y, T565L
light: B1 light
B14: Format A BGA-7916 (bispecific antibody, human IgG1, kappa)
heavy: B8 heavy with I553V, F563Y, T565Y
light: B1 light
B15: Format A BGA-8425 (bispecific antibody, human IgG1, kappa)
heavy: B8 heavy with V483L, I553V, F563Y, T565Y
light: B1 light
B16: BGA-3285-mutFc (Fc fusion)
chain: EVQLLESGGGLVQPGGSLRLSCAASGFTISAEDVGWVRQAPGKGLEWVSAILDFGGSTYYAESVKGRFTISRDNAKNTLYLQMSSLRAEDTAVYYCARVVYHAGGGVTFDTRGQGTQVTVSSGGGGSDKTHTCPPCPAPPAAGPSVFLFPPKPKDTLMISRTPEVTCVVVDVSHEDPEVKFNWYVDGVEVHNAKTKPREEQYNSTYRVVSVLTVLHQDWLNGKEYKCKVSNKALAAPIEKTISKAKGQPREPQVYTLPPSREEMTKNQVSLTCLVKGFYPSDIAVEWESNGQPENNYKTTPPVLDSDGSFFLYSKLTVDKSRWQQGNVFSCSVMHEALHNHYTQKSLSLSPGK
B17: BGA-9442-mutFc (Fc fusion)
chain: B16 chain with F54S, V99Y, T111L
B18: BGA-7746-mutFc (Fc fusion)
chain: B16 chain with I29V
B19: BGA-7916-mutFc (Fc fusion)
chain: B16 chain with I29V, F54S, F109Y
B20: BGA-4988-mutFc (Fc fusion)
chain: B16 chain with I29V, F54R, F109Y
B21: BGA-5385-mutFc (Fc fusion)
chain: B16 chain with I29L, F54H, V100I, F109Y, T111Y
B22: BGA-8425-mutFc (Fc fusion)
chain: B16 chain with I29L, F54S, F109Y, T111Y
B23: BGA-9468-mutFc (Fc fusion)
chain: B16 chain with I29V, F54S, A103S, T111L
B24: BGA-3849-mutFc (Fc fusion)
chain: B16 chain with I29L, A31H, F54S, V99Y
B25: BGA-3953-mutFc (Fc fusion)
chain: B16 chain with I29V, F54S, V99I

Target: full-length human CD137 on cells (Hut78/huCD137, HEK293 transfectants, JK-NFKB-CD137) (human, UniProt Q07011 24-255)
Sequence (Q07011 24-255 limits assumed): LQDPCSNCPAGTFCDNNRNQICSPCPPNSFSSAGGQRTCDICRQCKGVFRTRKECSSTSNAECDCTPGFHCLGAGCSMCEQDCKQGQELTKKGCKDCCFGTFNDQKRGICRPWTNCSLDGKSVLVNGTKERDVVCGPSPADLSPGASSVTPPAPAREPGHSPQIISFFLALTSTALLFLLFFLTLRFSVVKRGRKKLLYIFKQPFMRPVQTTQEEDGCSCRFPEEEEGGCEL
Assay: cell-based or functional assay

Binder	Functional assay EC50 (PBMC cytokine release, in vitro CD137 activation) [µg/mL]
B1	4.69
B2	25.1
B3	0.01
B4	1.76
B5	1.16
B6	0.17
B7	0.18

Target: T1, human CD137 ECD-mIgG2a (human)
T1 construct: ECD 24-183 of huCD137 fused to mouse IgG2a Fc; also called huCD137-mIgG2a; huCD137
T1 sequence (chain, as listed by the source limits assumed): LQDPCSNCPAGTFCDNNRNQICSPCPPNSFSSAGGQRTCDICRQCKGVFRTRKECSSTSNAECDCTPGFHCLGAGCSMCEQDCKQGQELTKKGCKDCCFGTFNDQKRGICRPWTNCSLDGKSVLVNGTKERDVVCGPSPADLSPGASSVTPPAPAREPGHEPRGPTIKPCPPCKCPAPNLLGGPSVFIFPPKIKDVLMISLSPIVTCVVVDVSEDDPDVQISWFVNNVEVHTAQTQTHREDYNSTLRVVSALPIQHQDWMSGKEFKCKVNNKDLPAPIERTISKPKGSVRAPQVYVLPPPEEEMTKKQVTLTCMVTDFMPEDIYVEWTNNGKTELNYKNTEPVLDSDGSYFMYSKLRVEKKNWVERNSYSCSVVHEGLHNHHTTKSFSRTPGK
Assay: SPR, A-CEAxCD137 format
Procedure: (§1) Characterization of anti-huCD137 VH domain antibodies were made by SPR assays using BIAcore™ T-200 (GE Life Sciences). Briefly, anti-human IgG (Fc) antibody was immobilized on an activated CM5 biosensor chip (Cat.: BR100839, GE Life Sciences). Anti-huCD137 domain antibodies were flowed over the chip surface and captured by anti-human IgG (Fc) antibody. […] The equilibrium dissociation constant (KD) was calculated as the ratio koff/kₒₙ.
(§2) Affinity comparison on CD137 affinity matured variants was made by SPR assays using BIAcore™ T-200 (GE Life Sciences) and flow cytometry as described.

Binder	Kd [nM]
B8	115
B9	873
B10	245
B11	798
B12	154
B13	164
B14	203
B15	189

Target: T1, human CD137 ECD-mIgG2a
Assay: SPR, Fc-fusion VH captured
Procedure: as §1, §2

Binder	Kd [nM]
B16	186
B17	151
B18	193
B19	87.7
B20	1030
B21	100
B22	93.4
B23	190
B24	76.3
B25	48.3
